Assay results: US5854049

Experiments:
[1] = target: purified human Glu-plasminogen (American Diagnostica, 98% Glu-type plasminogen) (human) (UniProt P00747)
[2] = target: purified human Glu-plasminogen (American Diagnostica, 98% Glu-type plasminogen) (human) (UniProt P00747); remark: listed apart in the source
[3] = target: rSK (fusion protein with maltose binding protein linked to the amino terminus of nSK) (Streptococcus equisimilis (SK part))
[4] = target: native, full-length mature SK protein derived from Streptococcus equisimilus (nSK) (Streptococcus equisimilus)

Substance	lag phase of plasminogen activation (S2251 hydrolysis, absorption at 405 nm, 21° C.) [1]	amidolytic kinetic parameters of the SK-PAC on S2251: Km (µM), Kcat (S^-1), kcat/Km (µM^-1 S^-1) [2]	cleavage of SK by plasmin after mixing with excess Glu-plasminogen (immunoblot with monoclonal anti-SK antibodies) [3]	cleavage of SK by plasmin after mixing with excess Glu-plasminogen (immunoblot with monoclonal anti-SK antibodies) [4]
native, full-length mature SK protein derived from Streptococcus equisimilus (nSK)	< 50 s	0.226 µM^-1 S^-1		
plasmin (from UniProt P00747) (enzyme)			1 min	< 30 s
